Laboratory results taken from patent publication US20080056998A1, “COMPOSITION AND PROCESSES FOR CROSSING THE BLOOD-BRAIN BARRIER WITH POLYPEPTIDES FOR IN VIVO NEUROIMAGING” (The General Hospital Corporation, priority 2006, published 2008).

Experiments:
[1] = test system: neurons, astrocytes, and endothelial cells; assay: dual-channel fluorescence microscopy of stained brain sections; assay type: in vivo, mouse
From the text: When the exemplary MPAP-Cy5.5 delivery module penetrates the BBB, exemplary dual-channel fluorescence microscopy can be used to observe whether the distribution of the exemplary MPAP-Cy5.5 delivery module in the exemplary brain forms in a cell-type-specific manner. In a further exemplary embodiment of the present invention, an exemplary distribution of the exemplary MPAP-Cy5.5 delivery module within different cell types of a brain can be determined with dual-channel fluorescence microscopy. For example, cryopreserved serial brain sections from mice perfused with the MPAP-Cy5.5 delivery module can be stained for neurons, astrocytes, and endothelial cells using anti-neuronal nuclei antibody (such as, for example, NeuN, monoclonal, from Chemicon International, Temecula, Calif.), anti-glial fibrillary acidic protein antibody (such as, for example, GFAP from Chemicon International, Temecula, Calif.), and anti-CD31 (such as, for example PECAM-1 from BD Biosciences Pharmingen, San Jose, Calif.). The brain sections may be further incubated with corresponding FITC-conjugated secondary antibodies. Further, slides of the brain sections can be mounted in a mounting medium, such as, for example, a Vectashield mounting medium from Vector Laboratories in Burlingame, Calif. Dual-channel fluorescence microscopy in, for example, the Cy5.5 and FITC channels can be performed using, for example, a Nikon Eclipse 50i fluorescence microscope equipped with an appropriate filter set, such as, for example, one provided by Chroma Technology Corporation in Rockingham, Vt. Exemplary images can be acquired using a CCD camera with near-infrared sensitivity (such as, for example, a SPOT 7.4 Slider RTKE from Diagnostic Instruments in Sterling Heights, Mich.).
Although a mechanism for neuronal accumulation remains unclear, it may be possible that preferential targeting into neurons can be related to the higher lypophilicity of neuronal membranes as compared to other cell types. (See, e.g., publications 4 and 6.) Lypophilic peptides may have an advantage to penetrate by adsorptive endocytosis. […] However, some signal may be detectable in the thalamus 904 and the CA3 area of the hippocampus 905.

mouse brain [2] = assay: in vivo NIR fluorescence imaging after intravenous injection; conditions: mice; for crossing of the BBB / accumulation in the brain: MPAP-Cy5.5 at about 24 hours post-injection, Cy5.5 at any point in time; for NIR fluorescent signal in the brain in vivo: imaging 15 min to 44 hours
Experimental: In the exemplary embodiment of the present invention, for in vivo optical imaging, n mice can be injected intravenously with about 2.5 nmol of the exemplary delivery module MPAP-Cy5.5, Cy5.5 alone, or saline solution. In an exemplary embodiment of the present invention, n=4 for each group of solutions for a total of 12 mice. Imaging can be performed at various times after injection. For example, it may be performed about 15 and 30 minutes after injection, as well as 1, 2, 3, 6, 24 and 44 hours after injection. For exemplary NIR fluorescent imaging, the mice can be placed into an imaging system, for example a Kodak Imaging Station IS2000MM, equipped with a band-pass filter at about 630 nm and a long pass filter at about 700 nm, such as the Chroma Technology Corporation. Exemplary images can be captured with e.g., charge-coupled device (“CCD”) camera embedded in the imaging system and exemplary analyses may be performed using Kodak ID3.6.3 imaging software.
Initially, after an exemplary intravenous injection of the delivery module into an mammal, such as a mouse, there may be no defined fluorescent signal in the brain for a few hours. […] An increase in the emitted light can occur 24 hours after injection 202, and the signal can continue to accumulate up to approximately 2 days or more 203.

mouse brain [3] = assay: ex vivo NIR fluorescence imaging of removed brains and coronal brain slices; assay type: in vivo; conditions: for ex vivo NIR fluorescent signal of removed brain: 24 hours after injection
Experimental: In another exemplary embodiment of the present invention, fluorescence signals may be observed using exemplary ex vivo imaging performed on the exemplary mouse brains post injection of the exemplary delivery module. Exemplary Ex vivo NIR fluorescence imaging can be performed, e.g., 24 hours after the injection of the exemplary MPAP-Cy5.5 delivery module. Upon sacrificing the mice, each mouse brain can be removed, placed into the exemplary imaging system, and imaged as described above.
Additional observations regarding accumulation of the exemplary delivery module in the brain can be obtained after imaging 1 mm-thick coronal brain slices from the exemplary mouse brain. The exemplary mouse brain can be cut into 1 mm coronal brain sections using a slicing apparatus, such as the RBM-2000C provided by Analytical Scientific Instruments, taken at the following exemplary anteroposterior coordinates from bregma, e.g.: +1.1 mm, +0.1 mm, −0.9 mm, −1.9 mm. Referring to FIG. 6, the exemplary brain slices can then be placed into the exemplary imaging system and imaged 600 as described above.

brain endothelium = assay: dual-channel confocal microscopy of brain endothelium; assay type: in vivo; conditions: intravenous, about 2.5 nmol; sacrificed 1, 3 or 6 hours after injection
Experimental: Further, fluorescence confocal microscopy techniques/systems can be employed to investigate a delivery route of the delivery module after injection. For example, mammals can be injected intravenously with about 2.5 nmol of the exemplary delivery module MPAPCy5.5, perfused, and sacrificed 1, 3 or 6 hours after injection. Brain sections from the sacrificed animals may be frozen. The frozen brain sections can then be stained with, for example, anti-CD31 antibodies followed by FITC-conjugated secondary antibody as described above. Dual-channel confocal microscopy can be performed, for example, in the FITC and Cy5.5 channels. Further, confocal microscopy can be performed using, for example, an Axiovert 200 M inverted microscope (from, e.g., Carl Zeiss, Inc. Thornwood, N.Y.), equipped with an LSM Pascal Vario RGB Laser Module (Arg 458/488/514 nm, HeNe 543 nm, HeNe 633 nm). An exemplary confocal images with a slice thickness of, for example, <0.9 Am can be acquired to produce, for example, FITC and Cy5.5 staining as well as Nomarski optics. Exemplary summation projection of all background-corrected confocal slices can be produced using, for example, LSM 5 Pascal Software. Further, the exemplary confocal images can be color-coded with, for example, green for FITC and red for Cy5.5. […]

[4] = HPLC study of perfused brain homogenate; assay type: in vivo, mouse; conditions: brain perfused 24 hours after intravenous injection
Experimental: In a further exemplary embodiment of the present invention, the mouse brains can be perfused for 24 hours after injection of the delivery module in order to remove intravascular contents. The brain homogenates can then be subjected to exemplary High-Powered Liquid Chromatography (“HPLC”) analysis.
According to an exemplary embodiment of the present invention, n mice (n=4 for example) can be injected intravenously with the delivery module. The mouse brain uptake of the compound can be detected by HPLC after in situ brain perfusion. A perfused brain can be soaked in a HPLC mobile phase solution for 15 minutes and homogenized on ice using a mechanical homogenizer, such as that which is marketed by Virtis in Gardiner, N.Y. A resulting brain residue can be filtered using, for example, 0.45 Am Whatman Nylon filters, lyophilized, and analyzed by 2D-HPLC, such as that whish is marketed by Lachrome Elite, Hitachi in San Jose, Calif. […] In addition, the detected peak can be correlated and matched with the absorbance spectrum profile of Cy5.5 dye. […] Furthermore, the absorbance profile of this peak can correspond to the absorbance profile of Cy5.5 dye at approximately 670 nm 702.
Upon switching the detection wavelength to 220 nm, the retention time peak at 32 min can be detected along with other more polar peaks, such as those associated with brain metabolites.

Row | Substance | accumulation in astrocytes ([1]; GFAP staining) | accumulation in neurons ([1]; NeuN staining) | localization in endothelial cells ([1]; anti-CD31 staining) | distribution over brain regions ([1]; cortex, hippocampus, thalamus) | subcellular localization in neurons ([1]; mouse, in vivo) | crossing of the BBB / accumulation in the brain (mouse brain [2]) | time post-injection at which NIR fluorescent signal is detected in the brain (head summit) (mouse brain [2]; about 2.5 nmol) [h] | time up to which the brain signal continues to accumulate (mouse brain [2]; about 2.5 nmol) [days] | NIR fluorescent signal in the brain in vivo (mouse brain [2]; about 2.5 nmol) | accumulation in peripheral tissues / mouse body (mouse brain [2]; kidneys and spleen) | ex vivo NIR fluorescent signal of removed brain (mouse brain [3]) | distribution in 1 mm coronal brain slices (mouse brain [3]; slices at +1.1, +0.1, −0.9, −1.9 mm from bregma) | time after injection to pass through the endothelium (brain endothelium) [h] | degradation in systemic circulation (intact compound in brain homogenate by HPLC) [4]
1 | C14-βAla-(Arg)7-Cys(Cy5.5)-NH2 [MPAP-Cy5.5] | may not show widespread accumulation | primarily accumulate in neurons | no significant localization | detected in almost all regions of the brain | predominantly localized within the cell cytoplasm | crossed the BBB and accumulate within the mouse brain | 6 | ≥ 2 | progressively increasing NIR fluorescent signal | accumulation of the delivery module in peripheral tissues | strong NIR fluorescent signal | distributed randomly throughout the brain parenchyma | ≤ 1 | may likely not degrade in systemic circulation
2 | Cy5.5 [reference compound] | – | – | – | – | – | no accumulation in the brain | – | – | no signal appears | – | no significant signal beyond background levels | – | – | –
